This note sets out measurements from doi:10.1101/2025.08.07.669073 (bioRxiv, 2025).

The target of test [1] is human ATP13A1 mutated at the border between the membrane region and the ER lumen (human) (UniProt Q9HD20). Briefly: co-IP.
Test [2] concerns the target yeast EMC with Emc5-GFP, Emc7 deleted (S. cerevisiae, UniProt P25574;P47133;P36039;P53073;P40540;Q12431;Q12025). Briefly: co-IP.
Test [3] concerns the target yeast EMC with Emc5-GFP, Emc10 deleted (S. cerevisiae) (UniProt P25574). Put plainly: co-IP.
For test [4], the target named is yeast EMC with Emc5-TSII, recombinant from insect cells (S. cerevisiae) (UniProt P25574). Briefly: co-IP.
Test [5] deals with T1, yeast Spf1-FLAG, recombinant from insect cells (S. cerevisiae, UniProt P39986).
T1 sequence: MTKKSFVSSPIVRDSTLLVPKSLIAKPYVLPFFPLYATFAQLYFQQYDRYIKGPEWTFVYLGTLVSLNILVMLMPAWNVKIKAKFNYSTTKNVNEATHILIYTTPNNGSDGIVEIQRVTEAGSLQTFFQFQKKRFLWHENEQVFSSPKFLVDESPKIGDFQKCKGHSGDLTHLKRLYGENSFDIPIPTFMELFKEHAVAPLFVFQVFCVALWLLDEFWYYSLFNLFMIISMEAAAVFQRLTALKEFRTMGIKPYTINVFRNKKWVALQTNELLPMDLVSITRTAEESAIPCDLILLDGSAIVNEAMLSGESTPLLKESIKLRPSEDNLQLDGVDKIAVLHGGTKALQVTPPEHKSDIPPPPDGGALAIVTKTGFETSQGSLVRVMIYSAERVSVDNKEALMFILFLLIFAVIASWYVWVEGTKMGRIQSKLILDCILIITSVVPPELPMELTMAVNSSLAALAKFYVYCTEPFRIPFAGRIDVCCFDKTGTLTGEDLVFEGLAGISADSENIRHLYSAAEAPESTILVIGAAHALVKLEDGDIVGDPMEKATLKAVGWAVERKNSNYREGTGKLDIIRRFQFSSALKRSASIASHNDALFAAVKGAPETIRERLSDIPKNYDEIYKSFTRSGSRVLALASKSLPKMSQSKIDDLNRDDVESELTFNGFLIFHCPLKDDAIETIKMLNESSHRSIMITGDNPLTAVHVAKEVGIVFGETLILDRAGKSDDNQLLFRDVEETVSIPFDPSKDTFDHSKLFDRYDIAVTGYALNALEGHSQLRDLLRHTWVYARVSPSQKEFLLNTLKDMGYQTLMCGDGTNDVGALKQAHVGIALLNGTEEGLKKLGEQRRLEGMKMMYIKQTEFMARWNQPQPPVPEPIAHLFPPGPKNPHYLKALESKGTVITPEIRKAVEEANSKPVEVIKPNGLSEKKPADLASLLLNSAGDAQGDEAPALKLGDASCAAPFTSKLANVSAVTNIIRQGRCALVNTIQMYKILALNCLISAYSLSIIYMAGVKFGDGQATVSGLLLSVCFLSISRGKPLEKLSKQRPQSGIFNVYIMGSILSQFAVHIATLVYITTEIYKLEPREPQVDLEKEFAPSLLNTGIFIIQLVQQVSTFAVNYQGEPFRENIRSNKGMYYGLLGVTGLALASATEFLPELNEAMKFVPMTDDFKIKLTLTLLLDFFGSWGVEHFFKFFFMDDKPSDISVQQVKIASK
Briefly: cryo-EM structure.

Where a chain is given by its changes, count along the chain named. Numbers in names are those of the source.

yeast EMC with Emc5-GFP, Emc7 deleted, sequence (P25574 25-760, stated change not applied, chain 1 of 4): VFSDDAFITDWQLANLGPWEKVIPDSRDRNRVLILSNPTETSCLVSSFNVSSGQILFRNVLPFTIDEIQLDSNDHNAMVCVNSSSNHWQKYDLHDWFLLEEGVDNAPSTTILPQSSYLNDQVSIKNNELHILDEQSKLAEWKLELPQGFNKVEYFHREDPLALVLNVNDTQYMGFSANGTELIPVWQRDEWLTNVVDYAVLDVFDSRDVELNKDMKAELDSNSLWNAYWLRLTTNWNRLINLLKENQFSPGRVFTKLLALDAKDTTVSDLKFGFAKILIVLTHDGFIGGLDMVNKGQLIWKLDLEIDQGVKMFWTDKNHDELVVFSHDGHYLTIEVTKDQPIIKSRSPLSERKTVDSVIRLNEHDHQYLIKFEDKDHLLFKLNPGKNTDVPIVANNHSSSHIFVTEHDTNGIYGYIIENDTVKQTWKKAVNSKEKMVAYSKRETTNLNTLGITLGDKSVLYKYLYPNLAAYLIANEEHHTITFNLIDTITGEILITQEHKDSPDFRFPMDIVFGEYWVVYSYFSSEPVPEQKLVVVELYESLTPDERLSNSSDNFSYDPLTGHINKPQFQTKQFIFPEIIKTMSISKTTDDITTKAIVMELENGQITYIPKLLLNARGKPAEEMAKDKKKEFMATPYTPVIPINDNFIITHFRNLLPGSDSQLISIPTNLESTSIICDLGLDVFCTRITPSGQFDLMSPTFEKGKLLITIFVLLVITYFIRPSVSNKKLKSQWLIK
yeast EMC with Emc5-GFP, Emc7 deleted, sequence (P47133 whole entry, stated change not applied, chain 2 of 4): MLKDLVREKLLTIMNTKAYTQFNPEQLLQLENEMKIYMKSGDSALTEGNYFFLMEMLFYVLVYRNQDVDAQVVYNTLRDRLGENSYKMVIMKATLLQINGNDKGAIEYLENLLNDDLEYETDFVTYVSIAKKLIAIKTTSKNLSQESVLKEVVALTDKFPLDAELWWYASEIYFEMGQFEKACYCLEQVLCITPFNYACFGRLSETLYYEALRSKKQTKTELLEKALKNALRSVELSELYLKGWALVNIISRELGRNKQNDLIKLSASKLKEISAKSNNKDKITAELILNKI
yeast EMC with Emc5-GFP, Emc7 deleted, sequence (P40540 whole entry, stated change not applied, chain 5 of 4): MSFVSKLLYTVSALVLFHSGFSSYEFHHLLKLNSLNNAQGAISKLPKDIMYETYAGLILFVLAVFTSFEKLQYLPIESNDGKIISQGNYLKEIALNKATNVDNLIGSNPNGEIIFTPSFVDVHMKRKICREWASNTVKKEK
yeast EMC with Emc5-GFP, Emc7 deleted, sequence (Q12431 whole entry, stated change not applied, chain 6 of 4): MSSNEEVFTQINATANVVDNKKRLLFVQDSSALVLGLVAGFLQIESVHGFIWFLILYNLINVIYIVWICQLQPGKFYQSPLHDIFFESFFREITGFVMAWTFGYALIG
human ATP13A1 mutated at the border between the membrane region and the ER lumen (human), sequence (Q9HD20 whole entry, stated change not applied): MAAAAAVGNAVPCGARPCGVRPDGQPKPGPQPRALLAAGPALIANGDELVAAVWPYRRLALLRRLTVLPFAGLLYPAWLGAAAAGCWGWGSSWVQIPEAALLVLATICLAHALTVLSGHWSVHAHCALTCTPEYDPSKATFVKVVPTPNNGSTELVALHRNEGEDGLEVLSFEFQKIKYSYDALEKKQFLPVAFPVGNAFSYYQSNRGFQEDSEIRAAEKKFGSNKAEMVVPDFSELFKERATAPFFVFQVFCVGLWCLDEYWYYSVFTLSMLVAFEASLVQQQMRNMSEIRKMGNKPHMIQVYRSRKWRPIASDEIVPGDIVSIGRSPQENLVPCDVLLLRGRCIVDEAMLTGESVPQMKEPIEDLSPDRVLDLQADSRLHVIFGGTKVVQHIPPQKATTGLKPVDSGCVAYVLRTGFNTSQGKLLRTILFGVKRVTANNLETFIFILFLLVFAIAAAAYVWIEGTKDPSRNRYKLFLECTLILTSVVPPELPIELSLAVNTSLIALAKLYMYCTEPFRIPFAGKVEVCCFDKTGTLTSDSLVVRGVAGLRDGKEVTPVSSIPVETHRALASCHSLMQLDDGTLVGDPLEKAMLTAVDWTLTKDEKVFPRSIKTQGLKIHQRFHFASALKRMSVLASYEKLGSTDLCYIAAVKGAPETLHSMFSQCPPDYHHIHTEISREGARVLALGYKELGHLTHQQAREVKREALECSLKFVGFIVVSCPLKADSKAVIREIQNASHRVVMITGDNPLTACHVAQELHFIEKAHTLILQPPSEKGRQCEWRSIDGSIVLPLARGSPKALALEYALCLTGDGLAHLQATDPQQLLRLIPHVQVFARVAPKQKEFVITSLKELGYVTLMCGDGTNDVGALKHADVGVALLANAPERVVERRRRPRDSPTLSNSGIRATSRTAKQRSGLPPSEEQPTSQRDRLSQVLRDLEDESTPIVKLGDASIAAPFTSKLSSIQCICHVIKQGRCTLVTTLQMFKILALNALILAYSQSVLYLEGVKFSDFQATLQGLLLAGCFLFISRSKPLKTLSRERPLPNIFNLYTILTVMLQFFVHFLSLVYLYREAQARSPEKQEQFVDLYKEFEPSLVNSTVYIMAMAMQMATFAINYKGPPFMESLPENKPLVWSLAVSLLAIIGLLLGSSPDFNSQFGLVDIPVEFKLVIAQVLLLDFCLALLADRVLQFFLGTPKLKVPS

As to “human EMC, endogenous, HEK293T (from UniProt Q8N766;Q15006;Q9P0I2;Q5J8M3;Q8N4V1;Q9BV81;Q9NPA0;O43402;Q5UCC4) (complex)”, the interaction with the hEMC relative to wt in test [1] was 0.5 of wt.

B1: Spf1 with C-terminal triple HA-tag, endogenous locus, S. cerevisiae (natural protein)
chain: T1 sequence
For the molecule B1, the “Spf1 to Emc5 ratio in the IP, percent of wt” value in test [2] was 40%; in test [3] it was 48%.

B2: yeast Spf1 E1087A, recombinant from insect cells (natural protein)
chain: T1 sequence with E1087A
Consider B2, for which the EMC:Spf1 interaction, percent of wt in test [4] turned out to be 30%.

B3: yeast Emc3, subunit in the recombinant EMC:Spf1 complex (natural protein)
chain: MLLDDQLKYWVLLPISIVMVLTGVLKQYIMTLITGSSANEAQPRVKLTEWQYLQWAQLLIGNGGNLSSDAFAAKKEFLVKDLTEERHLAKAKQQDGSQAGEVPNPFNDPSMSNAMMNMAKGNMASFIPQTIIMWWVNHFFAGFILMQLPFPLTAKFKEMLQTGIICQDLDVRWVSSISWYFISVLGLNPVYNLIGLNDQDMGIQAGIGGPQGPQGPPQSQVDKAMHAMANDLTIIQHETCLDNVEQRVLKQYM
With B3, the binding result in test [5] was “binds”.

B4: yeast Emc4, subunit in the recombinant EMC:Spf1 complex (natural protein)
chain: MSEQEPYEWAKHLLDTKYIEKYNIQNSNTLPSPPGFEGNSSKGNVTRKQQDATSQTTSLAQKNQITVLQVQKAWQIALQPAKSIPMNIFMSYMSGTSLQIIPIMTALMLLSGPIKAIFSTRSAFKPVLGNKATQSQVQTAMFMYIVFQGVLMYIGYRKLNSMGLIPNAKGDWLPWERIAHYNNGLQWFSD
For B4, in test [5], the binding result is recorded as “binds”.

B5: yeast Emc10, subunit in the recombinant EMC:Spf1 complex (natural protein)
chain: ADILQLSYSDDAKDAIPLGTFEIDSTSDGNVTVTTVNIQDVEVSGEYCLNAQIEGKLDMPCFSYMKLRTPLKYDLIVDVDEDNEVKQVSLSYDETNDAITATVRYPEAGPTAPVTKLKKKTKTYADKKASKNKDGSTAQFEEDEEVKEVSWFQKNWKMLLLGLLIYNFVAGSAKKQQQGGAGADQKTE
With B5, in test [5], the binding result is reported as “binds”.
